Legend:
Experiment in all cases: co-IP; anti-ARMS (mouse, MA1-90667) coupled MagPlex microspheres incubated overnight with cleared RIPA lysates of transfected HEK293 cells; bound TRPV1, ARMS or AKAP79 detected with rabbit antibodies and anti-rabbit-PE on FLEXMAP 3D (MFI); interaction ratio = TRPV1 MFI divided by ARMS MFI; cells untreated or treated with forskolin 50 uM + IBMX 100 uM, H89 10 uM or BPKDi 1 uM
[1] = target: ARMS_(S1439/40) (ARMS mutant keeping only the PKA site S1439/40) (rat) (UniProt Q9EQG6)
[2] = target: Ankyrin-rich membrane spanning protein (ARMS), wild type (rat) (UniProt Q9EQG6)
[3] = target: ARMS0 (ARMS with all potential PKA sites mutated to alanine) (rat) (UniProt Q9EQG6)
[4] = target: ARMS_(S882) (ARMS mutant keeping only the PKA site S882) (rat) (UniProt Q9EQG6)
[5] = target: ARMS_(S1526/27) (ARMS mutant keeping only the PKA site S1526/27) (rat) (UniProt Q9EQG6)
[6] = target: ARMS_(S1251/52) (ARMS mutant keeping only the PKA site S1251/52) (rat) (UniProt Q9EQG6)
[7] = target: ARMS_(T903) (ARMS mutant keeping only the PKA site T903) (rat) (UniProt Q9EQG6)

transient receptor potential vanilloid 1 (TRPV1)-YFP (from UniProt O35433 1-838)
TRPV1 MFI / ARMS MFI in the ARMS precipitate, cells treated with BPKDi [1]: 3%
TRPV1 MFI / ARMS MFI in the ARMS precipitate, cells treated with H89 [1]: 4%
TRPV1 MFI / ARMS MFI in the ARMS precipitate, cells treated with forskolin + IBMX [1]: 6%
TRPV1 MFI / ARMS MFI in the ARMS precipitate, untreated cells [1]: 7%
TRPV1 MFI / ARMS MFI in the ARMS precipitate, cells treated with BPKDi [2]: 3%
TRPV1 MFI / ARMS MFI in the ARMS precipitate, cells treated with H89 [2]: 4%
TRPV1 MFI / ARMS MFI in the ARMS precipitate, cells treated with forskolin + IBMX [2]: 9%
TRPV1 MFI / ARMS MFI in the ARMS precipitate, untreated cells [2]: 9%
TRPV1 MFI / ARMS MFI in the ARMS precipitate, cells treated with BPKDi [3]: 2%
TRPV1 MFI / ARMS MFI in the ARMS precipitate, cells treated with H89 [3]: 4%
TRPV1 MFI / ARMS MFI in the ARMS precipitate, cells treated with forskolin + IBMX [3]: 6%
TRPV1 MFI / ARMS MFI in the ARMS precipitate, untreated cells [3]: 5%
TRPV1 MFI / ARMS MFI in the ARMS precipitate, cells treated with BPKDi [4]: 4%
TRPV1 MFI / ARMS MFI in the ARMS precipitate, cells treated with H89 [4]: 5%
TRPV1 MFI / ARMS MFI in the ARMS precipitate, cells treated with forskolin + IBMX [4]: 7%
TRPV1 MFI / ARMS MFI in the ARMS precipitate, untreated cells [4]: 10%
TRPV1 MFI / ARMS MFI in the ARMS precipitate, cells treated with BPKDi [5]: 25%
TRPV1 MFI / ARMS MFI in the ARMS precipitate, cells treated with H89 [5]: 36%
TRPV1 MFI / ARMS MFI in the ARMS precipitate, cells treated with forskolin + IBMX [5]: 63%
TRPV1 MFI / ARMS MFI in the ARMS precipitate, untreated cells [5]: 60%
TRPV1 MFI / ARMS MFI in the ARMS precipitate, cells treated with BPKDi [6]: 5%
TRPV1 MFI / ARMS MFI in the ARMS precipitate, cells treated with H89 [6]: 6%
TRPV1 MFI / ARMS MFI in the ARMS precipitate, cells treated with forskolin + IBMX [6]: 18%
TRPV1 MFI / ARMS MFI in the ARMS precipitate, untreated cells [6]: 15%
TRPV1 MFI / ARMS MFI in the ARMS precipitate, cells treated with BPKDi [7]: 4%
TRPV1 MFI / ARMS MFI in the ARMS precipitate, cells treated with H89 [7]: 7%
TRPV1 MFI / ARMS MFI in the ARMS precipitate, cells treated with forskolin + IBMX [7]: 9%
TRPV1 MFI / ARMS MFI in the ARMS precipitate, untreated cells [7]: 12%
